± gives the uncertainty stated by the source.
B1: Bromodomain adjacent to zinc finger domain protein 2B, residues 1927 to 1982; numbered along this chain, Q9UIF8 (parent)
chain: KSIMKVYCQICRKGDNEELLLLCDGCDKGCHTYCHRPKITTIPDGDWFCPACIAKA

Variants of: B1
Test: abundance fitness (aPCA) (normalised: wild type 0, dead -1); higher = more abundant; growth selection in yeast, the domain comes from the species named
Settings: Homo sapiens

Variant | abundance fitness
KSIMKVYCQICRKGDNEELLLLCDGCDKGCHTYCHRPKITTIPKGDWFCPACIAKA [D44K] | -0.235 ± 0.13
KSIMKVYCQICRKGDNEELLLLCDGCDKGCHTYCHRPKITTIPRGDWFCPACIAKA [D44R] | -0.086 ± 0.082
KSIMKVYCQICRKGDNEELLLLCDGCDKGCHTYCHRPKITTIPTGDWFCPACIAKA [D44T] | -0.078 ± 0.12
KSIMKVYCQICRKGDNEELLLLCDGCDKGCHTYCHRPKITTIPVGDWFCPACIAKA [D44V] | -0.105 ± 0.1
KSIMKVYCQICRKGDNEELLLLCDGCDKGCHTYCHRPKITTIPHGDWFCPACIAKA [D44H] | -0.022 ± 0.17
KSIMKVYCQICRKGDNEELLLLCDGCDKGCHTYCHRPKITTIPPGDWFCPACIAKA [D44P] | 0.048 ± 0.11
KSIMKVYCQICRKGDNEELLLLCDGCDKGCHTYCHRPKITTIPNGDWFCPACIAKA [D44N] | 0.111 ± 0.19
KSIMKVYCQICRKGDNEELLLLCDGCDKGCHTYCHRPKITTIPIGDWFCPACIAKA [D44I] | -0.018 ± 0.28
KSIMKVYCQICRKGDNEELLLLCDGCDKGCHTYCHRPKITTIPYGDWFCPACIAKA [D44Y] | -0.222 ± 0.2
KSIMKVYCQICRKGDNEELLLLCDGCDKGCHTYCHRPKITTIPGGDWFCPACIAKA [D44G] | -0.017 ± 0.077
KSIMKVYCQICRKGDNEELLLLCDGCDKGCHTYCHRPKITTIPSGDWFCPACIAKA [D44S] | -0.031 ± 0.086
KSIMKVYCQICRKGDNEELLLLCDGCDKGCHTYCHRPKITTIPMGDWFCPACIAKA [D44M] | -0.083 ± 0.12
KSIMKVYCQICRKGDNEELLLLCDGCDKGCHTYCHRPKITTIPWGDWFCPACIAKA [D44W] | -0.205 ± 0.12
KSIMKVYCQICRKGDNEELLLLCDGCDKGCHTYCHRPKITTIPEGDWFCPACIAKA [D44E] | -0.206 ± 0.1
KSIMKVYCQICRKGDNEELLLLCDGCDKGCHTYCHRPKITTIPAGDWFCPACIAKA [D44A] | -0.11 ± 0.1
KSIMKVYCQICRKGDNEELLLLCDGCDKGCHTYCHRPKITTIPQGDWFCPACIAKA [D44Q] | -0.282 ± 0.24
KSIMKVYCQICRKGDNEELLLLCDGCDKGCHTYCHRPKITTIPLGDWFCPACIAKA [D44L] | -0.085 ± 0.087
KSIMKVYCQICRKGDNEELLLLCDGCDKGCHTYCHRPKITTIPDGYWFCPACIAKA [D46Y] | -0.375 ± 0.17
KSIMKVYCQICRKGDNEELLLLCDGCDKGCHTYCHRPKITTIPDGCWFCPACIAKA [D46C] | -0.06 ± 0.14
KSIMKVYCQICRKGDNEELLLLCDGCDKGCHTYCHRPKITTIPDGKWFCPACIAKA [D46K] | 0.033 ± 0.13
KSIMKVYCQICRKGDNEELLLLCDGCDKGCHTYCHRPKITTIPDGSWFCPACIAKA [D46S] | -0.006 ± 0.096
KSIMKVYCQICRKGDNEELLLLCDGCDKGCHTYCHRPKITTIPDGVWFCPACIAKA [D46V] | -0.046 ± 0.088
KSIMKVYCQICRKGDNEELLLLCDGCDKGCHTYCHRPKITTIPDGQWFCPACIAKA [D46Q] | 0.117 ± 0.14
KSIMKVYCQICRKGDNEELLLLCDGCDKGCHTYCHRPKITTIPDGLWFCPACIAKA [D46L] | -0.233 ± 0.099

Variant | abundance fitness
KSIMKVYCQICRKGDNEELLLLCDGCDKGCHTYCHRPKITTIPDGNWFCPACIAKA [D46N] | -0.009 ± 0.12
KSIMKVYCQICRKGDNEELLLLCDGCDKGCHTYCHRPKITTIPDGWWFCPACIAKA [D46W] | -0.582 ± 0.16
KSIMKVYCQICRKGDNEELLLLCDGCDKGCHTYCHRPKITTIPDGTWFCPACIAKA [D46T] | -0.094 ± 0.096
KSIMKVYCQICRKGDNEELLLLCDGCDKGCHTYCHRPKITTIPDGHWFCPACIAKA [D46H] | -0.122 ± 0.12
KSIMKVYCQICRKGDNEELLLLCDGCDKGCHTYCHRPKITTIPDGGWFCPACIAKA [D46G] | -0.031 ± 0.083
KSIMKVYCQICRKGDNEELLLLCDGCDKGCHTYCHRPKITTIPDGAWFCPACIAKA [D46A] | -0.146 ± 0.089
KSIMKVYCQICRKGDNEELLLLCDGCDKGCHTYCHRPKITTIPDGEWFCPACIAKA [D46E] | 0.028 ± 0.11
KSIMKVYCQICRKGDNEELLLLCDGCDKGCHTYCHRPKITTIPDGMWFCPACIAKA [D46M] | -0.218 ± 0.13
KSIMKVYCQICRKGDNEELLLLCDGCDKGCHTYCHRPKITTIPDGPWFCPACIAKA [D46P] | 0.058 ± 0.12
KSIMKVYCQICRKGDNEELLLLCDGCDKGCHTYCHRPKITTIPDGIWFCPACIAKA [D46I] | -0.305 ± 0.16
KSIMKVYCQICRKGDNEELLLLCDGCDKGCHTYCHRPKITTIPDGFWFCPACIAKA [D46F] | -0.334 ± 0.15
KSIMKVYCQICRKGDNEELLLLCDGCDKGCHTYCHRPKITTIPDADWFCPACIAKA [G45A] | -0.154 ± 0.2
KSIMKVYCQICRKGDNEELLLLCDGCDKGCHTYCHRPKITTIPDDDWFCPACIAKA [G45D] | -0.068 ± 0.13
KSIMKVYCQICRKGDNEELLLLCDGCDKGCHTYCHRPKITTIPDSDWFCPACIAKA [G45S] | -0.005 ± 0.13
KSIMKVYCQICRKGDNEELLLLCDGCDKGCHTYCHRPKITTIPDVDWFCPACIAKA [G45V] | -0.139 ± 0.23
KSIMKVYCQICRKGDNEELLLLCDGCDKGCHTYCHRPKITTIPDCDWFCPACIAKA [G45C] | -0.235 ± 0.4
KSIMKVYCQICRKGDNEELLLLCDGCDKGCHTYCHRPKITTIPDWDWFCPACIAKA [G45W] | -0.728 ± 0.32
KSIMKVYCQICRKGDNEELLLLCDGCDKGCHTYCHRPKITTIPDMDWFCPACIAKA [G45M] | -0.371 ± 0.47
KSIMKVYCQICRKGDNEELLLLCDGCDKGCHTYCHRPKITTIPDKDWFCPACIAKA [G45K] | -0.425 ± 0.41
KSIMKVYCQICRKGDNEELLLLCDGCDKGCHTYCHRPKITTIPDRDWFCPACIAKA [G45R] | 0.023 ± 0.17
KSIMKVYCQICRKGDNEELLLLCDGCDKGCHTYCHRPKITTMPDGDWFCPACIAKA [I42M] | 0.049 ± 0.15
KSIMKVYCQICRKGDNEELLLLCDGCDKGCHTYCHRPKITTEPDGDWFCPACIAKA [I42E] | 0.069 ± 0.14
KSIMKVYCQICRKGDNEELLLLCDGCDKGCHTYCHRPKITTQPDGDWFCPACIAKA [I42Q] | -0.201 ± 0.11

Source: the Human Domainome abundance scans (Beltran et al. 2025)
